Test system: Jurkat cells
Experiment: Tacrolimus dose response of FKBP13-AcGFP-mCherry constructs stably transduced into Jurkat cells, GFP MFI by flow cytometry
Assay type: cell-based
Design: Basal: unit not given here
Method in brief: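 GFP geometric MFI was read by flow cytometry in mCherry+ cells and curve-fitted against tacrolimus dose. Cells were Jurkat E6-1, lentivirus-transduced with FKBP13-AcGFP-mCherry fusion constructs until 10-25% mCherry-positive on day 5 post-transduction.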

[1] = tacrolimus, Jurkat cells stably transduced, Table 6
[2] = tacrolimus, Jurkat cells, Table 13

B1: FKBP-143: FKBP13 DRD Q72R, Q84G, A117H, P43R; SEQ ID NO: 93 (protein)
chain: HCRIKSRKGDVLHMHYTGKLEDGTEFDSSLPRNQPFVFSLGTGGVIKGWDQGLLGMCEGEKRKLVIPSELGYGERGHPPKIPGGATLVFEVELLKIER
modifications: Description of sequence: FKBP13-AcGFP-mCherry Fusion; Construct Name: FKBP-143; FKBP13 DRD in Construct : FKBP13 (mutated to match FKBP12 active site Q72R Q84G A117H) (DRD P43R)
Fold Change [1]: 14.97

B2: FKBP-144: FKBP13 DRD Q72R, Q84E, A117H, D50R, E98M; SEQ ID NO: 94 (protein)
chain: HCPIKSRKGRVLHMHYTGKLEDGTEFDSSLPRNQPFVFSLGTGEVIKGWDQGLLGMCMGEKRKLVIPSELGYGERGHPPKIPGGATLVFEVELLKIER
modifications: Description of sequence: FKBP13-AcGFP-mCherry Fusion; Construct Name: FKBP-144; FKBP13 DRD in Construct : FKBP13 (mutated to match FKBP12 active site Q72R Q84E A117H) (DRD D50R E98M)
Fold Change [1]: 1.24

B3: FKBP-120: FKBP13 DRD Q72R, Q84E, A117H, K101W; SEQ ID NO: 70 (protein)
chain: HCPIKSRKGDVLHMHYTGKLEDGTEFDSSLPRNQPFVFSLGTGEVIKGWDQGLLGMCEGEWRKLVIPSELGYGERGHPPKIPGGATLVFEVELLKIER
modifications: Description of sequence: FKBP13-AcGFP-mCherry Fusion; Construct Name: FKBP-120; FKBP13 DRD in Construct : FKBP13 (mutated to match FKBP12 active site Q72R Q84E A117H) (DRD K101W)
Fold Change [1]: 30.53

B4: FKBP-264: FKBP13 DRD-AcGFP construct of Table 10 (protein)
chain: HCPIKSRKGDVLHMHYTGKLEDGTEFDSSLPRNQPFVFWLGTGRRIKGWDQGLLGMCEGEKRKLVIPSELGYGERGWPPKIPGGATLVFEVELLKIER
modifications: Description of sequence: Construct Name: FKBP-264; Mutation(s): Q72R S79W Q84R A117W DRD V85R
Basal (FIG. 45, BR1 (Biorep 1)): 127
FC (FIG. 45, BR1 (Biorep 1)): 37.06
At 10 uM (FIG. 45, BR1 (Biorep 1)): 4706
Fold Change [2]: 37.08

B5: FKBP-146: FKBP13 DRD Q72R, Q84E, A117H, L104S, I136L; SEQ ID NO: 96 (protein)
chain: HCPIKSRKGDVLHMHYTGKLEDGTEFDSSLPRNQPFVFSLGTGEVIKGWDQGLLGMCEGEKRKSVIPSELGYGERGHPPKIPGGATLVFEVELLKLER
modifications: Description of sequence: FKBP13-AcGFP-mCherry Fusion; Construct Name: FKBP-146; FKBP13 DRD in Construct : FKBP13 (mutated to match FKBP12 active site Q72R Q84E A117H) (DRD L104S I136L)
Fold Change [1]: 1.19

B6: FKBP-118: FKBP13 DRD Q72R, Q84E, A117H, V85R; SEQ ID NO: 68 (protein)
chain: HCPIKSRKGDVLHMHYTGKLEDGTEFDSSLPRNQPFVFSLGTGERIKGWDQGLLGMCEGEKRKLVIPSELGYGERGHPPKIPGGATLVFEVELLKIER
modifications: Description of sequence: FKBP13-AcGFP-mCherry Fusion; Construct Name: FKBP-118; FKBP13 DRD in Construct : FKBP13 (mutated to match FKBP12 active site Q72R Q84E A117H) (DRD V85R)
Fold Change [1]: 12.95

B7: FKBP-260: FKBP13 DRD-AcGFP construct of Table 10 (protein)
chain: HCPIKSRKGDVLHMHYTGKLEDGTEFDSSLPRNQPFVFSLGTGERIKGWDQGLLGMCEGENRKLVIPSELGYGERGWPPKIPGGATLVFEVELLKIER
modifications: Description of sequence: Construct Name: FKBP-260; Mutation(s): Q72R Q84E A117W V85R DRD K101N
FC (tacrolimus, FIGS. 31 and 32): 51
Fold Change [2]: 51

B8: FKBP-262: FKBP13 DRD-AcGFP construct of Table 10 (protein)
chain: HCRIKSRKGDVLHMHYTGKLEDGTEFDSSLPRNQPFVFSLGTGERIKGWDQGLLGMCEGEKRKLVIPSELGYGERGWPPKIPGGATLVFEVELLYIER
modifications: Description of sequence: Construct Name: FKBP-262; Mutation(s): Q72R Q84E A117W V85R DRD P43R K135Y
Basal (FIG. 49, BR1 (Biorep 1)): 59.5
FC (FIG. 49, BR1 (Biorep 1)): 66.64
At 10 uM (FIG. 49, BR1 (Biorep 1)): 3965
Basal (FIG. 49, BR2 (Biorep 2)): 73.7
FC (FIG. 49, BR2 (Biorep 2)): 52.21
At 10 uM (FIG. 49, BR2 (Biorep 2)): 3848
FC (tacrolimus, FIGS. 31 and 32): 73
Fold Change [2]: 73

B9: FKBP-147: FKBP13 DRD Q72R, Q84E, A117H, T64R, S108G, E137F; SEQ ID NO: 97 (protein)
chain: HCPIKSRKGDVLHMHYTGKLEDGREFDSSLPRNQPFVFSLGTGEVIKGWDQGLLGMCEGEKRKLVIPGELGYGERGHPPKIPGGATLVFEVELLKIFR
modifications: Description of sequence: FKBP13-AcGFP-mCherry Fusion; Construct Name: FKBP-147; FKBP13 DRD in Construct : FKBP13 (mutated to match FKBP12 active site Q72R Q84E A117H) (DRD T64R S108G E137F)
Fold Change [1]: 26.65

B10: FKBP-119: FKBP13 DRD Q72R, Q84E, A117W, K101W; SEQ ID NO: 69 (protein)
chain: HCPIKSRKGDVLHMHYTGKLEDGTEFDSSLPRNQPFVFSLGTGEVIKGWDQGLLGMCEGEWRKLVIPSELGYGERGWPPKIPGGATLVFEVELLKIER
modifications: Description of sequence: FKBP13-AcGFP-mCherry Fusion; Construct Name: FKBP-119; FKBP13 DRD in Construct : FKBP13 (mutated to match FKBP12 active site Q72R Q84E A117W) (DRD K101W )
Fold Change [1]: 31.91

B11: FKBP-148: FKBP13 DRD Q72R, Q84E, A117H, D62N, D67N, D90N, M96G, E130K; SEQ ID NO: 98 (protein)
chain: HCPIKSRKGDVLHMHYTGKLENGTEFNSSLPRNQPFVFSLGTGEVIKGWNQGLLGGCEGEKRKLVIPSELGYGERGHPPKIPGGATLVFKVELLKIER
modifications: Description of sequence: FKBP13-AcGFP-mCherry Fusion; Construct Name: FKBP-148; FKBP13 DRD in Construct : FKBP13 (mutated to match FKBP12 active site Q72R Q84E A117H) (DRD D62N D67N D90N M96G E130K)
Fold Change [1]: 1.09

B12: FKBP-149: FKBP13 DRD Q72R, Q84E, A117H, T64Q, L94G; SEQ ID NO: 99 (protein)
chain: HCPIKSRKGDVLHMHYTGKLEDGQEFDSSLPRNQPFVFSLGTGEVIKGWDQGLGGMCEGEKRKLVIPSELGYGERGHPPKIPGGATLVFEVELLKIER
modifications: Description of sequence: FKBP13-AcGFP-mCherry Fusion; Construct Name: FKBP-149; FKBP13 DRD in Construct : FKBP13 (mutated to match FKBP12 active site Q72R Q84E A117H) (DRD T64Q L94G)
Fold Change [1]: 39.28

B13: FKBP-145: FKBP13 DRD Q72R, Q84E, A117H, H41S, E61D; SEQ ID NO: 95 (protein)
chain: SCPIKSRKGDVLHMHYTGKLDDGTEFDSSLPRNQPFVFSLGTGEVIKGWDQGLLGMCEGEKRKLVIPSELGYGERGHPPKIPGGATLVFEVELLKIER
modifications: Description of sequence: FKBP13-AcGFP-mCherry Fusion; Construct Name: FKBP-145; FKBP13 DRD in Construct : FKBP13 (mutated to match FKBP12 active site Q72R Q84E A117H) (DRD H41S E61D)
Fold Change [1]: 11.05

B14: FKBP-150: FKBP13 DRD Q72R, Q84E, A117H, E61G, G124P; SEQ ID NO: 100 (protein)
chain: HCPIKSRKGDVLHMHYTGKLGDGTEFDSSLPRNQPFVFSLGTGEVIKGWDQGLLGMCEGEKRKLVIPSELGYGERGHPPKIPGPATLVFEVELLKIER
modifications: Description of sequence: FKBP13-AcGFP-mCherry Fusion; Construct Name: FKBP-150; FKBP13 DRD in Construct : FKBP13 (mutated to match FKBP12 active site Q72R Q84E A117H) (DRD E61G G124P)
Fold Change [1]: 21.15
